Test results taken from US20220378956A1.

Molecular target: soluble uPAR (suPAR) (UniProt Q03405)
Assay: SPR (Biacore 2000), antibody captured on protein A/G surface, suPAR injected, 25 C, 1:1 Langmuir fit

| Kd | Binder |
| --- | --- |
| 0.28 nM | Human Engineered ATN-658 variant HE ATN-3 (antibody, V domains shown) VH: EVQLVQSGPEVKKTGASVKISCKASGYSFTSYYMHWVRQAHGQGLEWIGEINPYNGGASYNQKIQGRATFTVDTSTSTAYMEFSSLRSEDTAVYYCARSIYGHSVLDYWGQGTLVTVSS VL: DVVMTQSPLSLSVTIGEPASISCRSSQSLLDSDGKTYLNWLLQKPGQSPKRLIYLVSKRDSGVPDRFSGSGSGTDFTLKISRVEAEDVGVYYCWQGTHFPLTFGQGTKLEIK |
| 0.28 nM | Human Engineered ATN-658 variant HE ATN-1 (antibody, human IgG1, V domains shown) VH: EVQLVQSGPEVVKTGASVKISCKASGYSFTSYYMHWVKQAHGQGLEWIGEINPYNGGASYNQKIKGRATFTVDTSTRTAYMEFSSLRSEDTAVYYCARSIYGHSVLDYWGQGTLVTVSS VL: DVVMTQSPLSLSVTIGEPASISCRSSQSLLDSDGKTYLNWLLQKPGQSPKRLIYLVSKRDSGVPDRFSGSGSGTDFTLKISRVEAEDVGVYYCWQGTHFPLTFGQGTKLEIK |
